Experimental data as given in PMC13132431, “Epigenetic gene regulation is controlled by distinct regulatory complexes utilizing specialized paralogs of TELOMERE REPEAT BINDING FACTORS”.

T1: HIS-TRB1 (Arabidopsis thaliana, UniProt Q8VWK4 1-300)
T1 sequence: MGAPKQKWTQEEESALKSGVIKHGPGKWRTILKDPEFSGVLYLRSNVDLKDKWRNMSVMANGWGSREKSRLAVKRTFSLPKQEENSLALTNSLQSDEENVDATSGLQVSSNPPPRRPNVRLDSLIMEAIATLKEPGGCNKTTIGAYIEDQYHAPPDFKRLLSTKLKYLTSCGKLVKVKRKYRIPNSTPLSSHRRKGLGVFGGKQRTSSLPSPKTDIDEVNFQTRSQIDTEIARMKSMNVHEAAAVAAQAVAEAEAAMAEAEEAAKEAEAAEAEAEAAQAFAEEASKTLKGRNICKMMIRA

T2: HIS-TRB3 (Arabidopsis thaliana, UniProt Q9M2X3 1-295)
T2 sequence: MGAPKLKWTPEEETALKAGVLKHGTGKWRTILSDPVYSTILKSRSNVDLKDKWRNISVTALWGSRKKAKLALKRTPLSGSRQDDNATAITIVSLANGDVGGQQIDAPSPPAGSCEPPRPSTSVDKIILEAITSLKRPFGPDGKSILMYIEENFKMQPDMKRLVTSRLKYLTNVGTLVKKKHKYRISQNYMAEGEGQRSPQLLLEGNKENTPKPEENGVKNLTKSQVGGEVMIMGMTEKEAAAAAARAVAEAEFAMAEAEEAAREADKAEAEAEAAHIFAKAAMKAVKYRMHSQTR


Legend:
HIS-TRB1 = target: T1, HIS-TRB1; experiment: MST; MST: 50 mM NaPO4, 300 mM NaCl, pH 7.5, 0.05% Tween 20, 1.25 mg/ml BSA; 20 nM Cy3-dsDNA, 260 pM-8.5 uM protein; 10 min at RT; conditions: protein: recombinant; tags: 6xHis (pET-28b); label: 5'-Cy3 on both strands; blunt
HIS-TRB3 = target: T2, HIS-TRB3; experiment: as above; conditions: protein: recombinant; tags: 6xHis (pET-28b); label: 5'-Cy3 on both strands; blunt

Row | Binder | Kd (HIS-TRB1) | Kd (HIS-TRB3) | binding result (HIS-TRB1)
1 | R4 telo-box (4x repeat) (dsDNA) DNA 1: GGTTTAGGGTTTAGGGTTTAGGGTTTAG DNA 2: CTAAACCCTAAACCCTAAACCCTAAACC | 567 ± 180 nM | 531 ± 30 nM | 
2 | (C)GACCTAA (dsDNA) DNA 1: CATCATGGCGACCTAAGGCTGGTACTAG DNA 2: CTAGTACCAGCCTTAGGTCGCCATGATG |  | 652 ± 64 nM | no binding
3 | (C)AACCTAA (dsDNA) DNA 1: CATCATGGCAACCTAAGGCTGGTACTAG DNA 2: CTAGTACCAGCCTTAGGTTGCCATGATG | 4900 ± 1000 nM | 298 ± 48 nM | 
4 | proSEP3-telo-box (dsDNA) DNA 1: TTTAAATGTTAGGGTTTTTTGTAGGATT DNA 2: AATCCTACAAAAAACCCTAACATTTAAA |  | 640 ± 19 nM | no binding
